The values that follow come from PMC4893161, “The Dynamic Localization of Cytoplasmic Dynein in Neurons Is Driven by Kinesin-1” (Neuron, 2016).

Experiment [1] addresses KLC2^TPR, purified TPR domain of KLC2. The experiment is described as follows: fluorescence polarisation; TAMRA-conjugated DIC1 tryptophan-motif peptides with purified KLC1 or KLC2 TPR domain; KD values determined at 150 mM NaCl. In general terms: Fluorescence polarisation rises when a labelled molecule tumbles more slowly, as on binding a larger partner.
Experiment [2] addresses HA-tagged KLC1 (kinesin light chain 1) (UniProt O88447). The experiment is described as follows: co-immunoprecipitation (IP with anti-mCherry, western blot band intensity). The conditions noted are these: COS cells cotransfected, n = 6 experiments, parent: est. 1, read off a plot. (Immunoblotting shows a protein as a band on a membrane.)
In experiment [3] the target is HA-tagged KLC2 (kinesin light chain 2) (UniProt O88448). Described as above. The conditions noted are these: COS cells cotransfected, n = 4 experiments, parent: est. 1, read off a plot.
Sequence of HA-tagged KLC2 (kinesin light chain 2) (O88448 whole entry): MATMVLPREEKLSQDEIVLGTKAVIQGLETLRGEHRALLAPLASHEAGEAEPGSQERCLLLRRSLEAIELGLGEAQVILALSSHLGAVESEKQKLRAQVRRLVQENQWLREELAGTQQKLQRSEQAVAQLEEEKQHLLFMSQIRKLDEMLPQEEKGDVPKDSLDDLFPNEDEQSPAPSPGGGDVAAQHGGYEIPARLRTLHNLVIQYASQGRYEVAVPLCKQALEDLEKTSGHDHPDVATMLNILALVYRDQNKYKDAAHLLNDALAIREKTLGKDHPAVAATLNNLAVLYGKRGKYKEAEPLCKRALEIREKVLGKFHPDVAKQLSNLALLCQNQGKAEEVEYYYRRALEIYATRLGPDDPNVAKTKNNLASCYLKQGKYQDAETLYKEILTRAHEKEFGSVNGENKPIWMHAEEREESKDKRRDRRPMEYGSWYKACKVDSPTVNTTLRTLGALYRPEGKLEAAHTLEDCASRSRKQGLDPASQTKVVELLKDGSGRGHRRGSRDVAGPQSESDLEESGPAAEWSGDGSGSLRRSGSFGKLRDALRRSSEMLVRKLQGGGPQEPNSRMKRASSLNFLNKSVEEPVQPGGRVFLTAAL

Sequence of HA-tagged KLC1 (kinesin light chain 1) (O88447 whole entry): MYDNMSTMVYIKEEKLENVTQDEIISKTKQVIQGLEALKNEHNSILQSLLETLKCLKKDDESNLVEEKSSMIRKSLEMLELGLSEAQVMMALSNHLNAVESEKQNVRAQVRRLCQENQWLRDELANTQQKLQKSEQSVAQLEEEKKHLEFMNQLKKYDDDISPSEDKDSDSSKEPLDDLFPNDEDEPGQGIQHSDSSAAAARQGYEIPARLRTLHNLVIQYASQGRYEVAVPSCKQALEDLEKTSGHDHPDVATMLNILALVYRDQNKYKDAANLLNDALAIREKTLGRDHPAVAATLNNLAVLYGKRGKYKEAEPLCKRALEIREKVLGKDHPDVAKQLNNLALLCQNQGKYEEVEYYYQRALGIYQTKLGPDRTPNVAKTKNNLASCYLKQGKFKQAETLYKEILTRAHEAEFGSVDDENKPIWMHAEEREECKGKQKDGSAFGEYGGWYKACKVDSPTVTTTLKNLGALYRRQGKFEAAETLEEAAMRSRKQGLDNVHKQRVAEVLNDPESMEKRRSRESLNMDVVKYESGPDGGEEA

In experiment [1], “WD1^pept, TAMRA-conjugated 11-amino-acid peptide centered on the first tryptophan motif of DIC1” came in with a Kd of 9.18 µM. Take “mCherry-tagged DIC1a (dynein intermediate chain 1, isoform a), wild-type (from UniProt Q63100) WD1&2AA”: the ratio to parent stood at 0.47 in experiment [2] (p = 0.039 vs WT) and 0.53 in experiment [3] (p = 0.014 vs WT). As for “mCherry-tagged DIC1a (dynein intermediate chain 1, isoform a), wild-type (from UniProt Q63100) WD1AA”, the ratio to parent in experiment [2] (p = 1 vs WT) came to 0.93; in experiment [3] (p = 0.4 vs WT), 0.77.

Take “mCherry-tagged DIC1a (dynein intermediate chain 1, isoform a), wild-type (from UniProt Q63100) WD2AA”: the ratio to parent stood at 0.53 in experiment [2] (p = 0.08 vs WT) and 0.63 in experiment [3] (p = 0.064 vs WT).

For orientation: Kd means the concentration at which binding is half-saturated. Read a high Kd as weaker binding.
